Columns and labels:
Test in all cases: cell-based or functional assay
MAPKAP-K2(h) (human) = MAPKAP-K2(h) (human) (UniProt P49137)
Rsk2(h) (human) = Rsk2(h) (human) (UniProt P51812)
PhKγ2(h) (human) = target: T1, PhKγ2(h) (human) (UniProt P15735)
T1 sequence (looked up): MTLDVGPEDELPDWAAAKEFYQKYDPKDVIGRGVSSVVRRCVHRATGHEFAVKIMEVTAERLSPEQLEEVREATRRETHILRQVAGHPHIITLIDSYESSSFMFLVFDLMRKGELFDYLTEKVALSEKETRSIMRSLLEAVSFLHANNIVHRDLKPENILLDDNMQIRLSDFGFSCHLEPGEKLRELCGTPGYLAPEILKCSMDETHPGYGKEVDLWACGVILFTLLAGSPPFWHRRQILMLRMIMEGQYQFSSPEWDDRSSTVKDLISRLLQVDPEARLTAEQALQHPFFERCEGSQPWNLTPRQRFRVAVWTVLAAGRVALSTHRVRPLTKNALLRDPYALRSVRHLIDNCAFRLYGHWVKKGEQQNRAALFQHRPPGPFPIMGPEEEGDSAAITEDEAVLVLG

Rsk3(h) (human) = Rsk3(h) (human) (UniProt Q15349)
Rsk3(h) (human), sequence (Q15349 whole entry): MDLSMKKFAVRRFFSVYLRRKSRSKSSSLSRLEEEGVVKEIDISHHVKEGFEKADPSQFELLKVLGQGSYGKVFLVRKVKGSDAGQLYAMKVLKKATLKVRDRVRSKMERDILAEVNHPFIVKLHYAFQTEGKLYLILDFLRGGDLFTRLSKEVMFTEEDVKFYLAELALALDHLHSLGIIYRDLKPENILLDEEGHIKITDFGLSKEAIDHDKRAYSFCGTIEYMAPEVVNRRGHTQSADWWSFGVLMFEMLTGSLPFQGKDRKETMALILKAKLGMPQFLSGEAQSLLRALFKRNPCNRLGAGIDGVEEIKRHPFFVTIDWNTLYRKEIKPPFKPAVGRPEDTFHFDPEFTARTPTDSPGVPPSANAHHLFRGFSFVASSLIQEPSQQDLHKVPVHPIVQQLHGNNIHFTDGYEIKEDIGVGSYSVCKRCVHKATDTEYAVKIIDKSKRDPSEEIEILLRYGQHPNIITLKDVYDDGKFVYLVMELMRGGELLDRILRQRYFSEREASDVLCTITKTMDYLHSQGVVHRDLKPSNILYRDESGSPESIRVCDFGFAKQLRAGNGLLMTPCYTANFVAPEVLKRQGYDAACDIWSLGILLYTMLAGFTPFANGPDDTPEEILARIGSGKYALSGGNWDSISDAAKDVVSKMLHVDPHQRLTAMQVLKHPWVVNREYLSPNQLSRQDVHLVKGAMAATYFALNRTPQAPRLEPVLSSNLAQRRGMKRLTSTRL

VRK2(h) (human) = VRK2(h) (human) (UniProt Q86Y07)
[1] = target: CDK7/cyclinH/MAT1(h) (human) (UniProt P50613)
CDK7/cyclinH/MAT1(h) (human), sequence (P50613 whole entry, chain 1 of 3): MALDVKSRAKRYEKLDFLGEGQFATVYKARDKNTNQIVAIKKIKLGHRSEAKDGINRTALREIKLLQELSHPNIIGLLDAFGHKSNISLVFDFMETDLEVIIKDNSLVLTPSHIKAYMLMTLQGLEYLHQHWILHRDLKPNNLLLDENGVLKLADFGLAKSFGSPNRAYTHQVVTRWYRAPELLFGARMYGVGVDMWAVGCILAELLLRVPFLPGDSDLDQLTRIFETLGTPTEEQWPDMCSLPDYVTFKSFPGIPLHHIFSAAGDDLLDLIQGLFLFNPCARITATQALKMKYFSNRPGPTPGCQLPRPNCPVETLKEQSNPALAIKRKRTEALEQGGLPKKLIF
CDK7/cyclinH/MAT1(h) (human), sequence (P51946 whole entry, chain 2 of 3, further chain): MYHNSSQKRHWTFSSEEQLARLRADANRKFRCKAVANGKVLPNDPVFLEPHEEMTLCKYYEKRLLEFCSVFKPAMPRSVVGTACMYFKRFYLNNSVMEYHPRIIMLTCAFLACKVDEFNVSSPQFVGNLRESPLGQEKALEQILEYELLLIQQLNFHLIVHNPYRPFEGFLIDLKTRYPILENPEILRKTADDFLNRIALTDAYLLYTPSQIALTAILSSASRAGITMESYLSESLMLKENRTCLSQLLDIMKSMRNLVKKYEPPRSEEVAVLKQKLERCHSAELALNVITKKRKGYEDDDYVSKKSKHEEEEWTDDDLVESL
CDK7/cyclinH/MAT1(h) (human), sequence (P51948 whole entry, chain 3 of 3, further chain): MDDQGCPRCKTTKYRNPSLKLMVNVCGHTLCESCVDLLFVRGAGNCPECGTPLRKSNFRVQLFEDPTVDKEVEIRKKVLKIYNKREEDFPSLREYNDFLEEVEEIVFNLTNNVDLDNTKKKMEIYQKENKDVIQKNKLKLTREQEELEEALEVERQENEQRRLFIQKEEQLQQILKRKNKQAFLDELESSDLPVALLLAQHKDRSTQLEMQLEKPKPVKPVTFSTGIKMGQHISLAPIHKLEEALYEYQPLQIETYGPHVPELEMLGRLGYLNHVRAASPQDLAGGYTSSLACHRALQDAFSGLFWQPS

Abl(T315I)(h) (human) = Abl(T315I)(h) (human) (UniProt P00519)
Abl(T315I)(h) (human), sequence (P00519 27-1130 T315I limits assumed): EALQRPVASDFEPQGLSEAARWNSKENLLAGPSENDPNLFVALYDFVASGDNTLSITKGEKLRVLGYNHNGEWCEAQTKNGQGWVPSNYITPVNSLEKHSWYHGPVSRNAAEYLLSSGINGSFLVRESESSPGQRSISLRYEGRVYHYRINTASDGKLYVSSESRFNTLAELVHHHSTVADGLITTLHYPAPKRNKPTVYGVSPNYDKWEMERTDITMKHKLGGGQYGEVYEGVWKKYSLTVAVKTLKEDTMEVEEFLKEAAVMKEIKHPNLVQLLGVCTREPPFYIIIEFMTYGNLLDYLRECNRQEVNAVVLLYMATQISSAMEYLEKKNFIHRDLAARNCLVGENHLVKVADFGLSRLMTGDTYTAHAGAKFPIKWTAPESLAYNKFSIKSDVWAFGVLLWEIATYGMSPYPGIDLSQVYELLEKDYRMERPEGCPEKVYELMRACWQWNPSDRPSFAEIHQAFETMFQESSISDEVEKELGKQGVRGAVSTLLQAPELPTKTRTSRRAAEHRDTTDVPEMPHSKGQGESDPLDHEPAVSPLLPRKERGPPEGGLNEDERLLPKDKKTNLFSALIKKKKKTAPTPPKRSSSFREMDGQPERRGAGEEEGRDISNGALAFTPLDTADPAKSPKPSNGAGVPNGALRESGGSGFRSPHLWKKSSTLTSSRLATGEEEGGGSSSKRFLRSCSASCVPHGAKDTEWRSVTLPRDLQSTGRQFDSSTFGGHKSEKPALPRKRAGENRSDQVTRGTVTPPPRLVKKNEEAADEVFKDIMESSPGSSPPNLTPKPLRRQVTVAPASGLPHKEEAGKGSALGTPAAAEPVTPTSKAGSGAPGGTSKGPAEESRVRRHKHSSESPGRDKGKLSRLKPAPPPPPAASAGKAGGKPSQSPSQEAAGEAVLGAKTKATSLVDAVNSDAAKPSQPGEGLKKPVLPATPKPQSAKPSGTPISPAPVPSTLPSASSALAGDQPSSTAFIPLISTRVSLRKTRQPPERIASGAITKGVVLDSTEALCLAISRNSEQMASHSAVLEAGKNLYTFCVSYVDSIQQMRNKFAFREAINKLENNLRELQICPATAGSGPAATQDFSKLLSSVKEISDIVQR

DAPK2(h) (human) = DAPK2(h) (human) (UniProt Q9UIK4)
DAPK2(h) (human), sequence (Q9UIK4 whole entry): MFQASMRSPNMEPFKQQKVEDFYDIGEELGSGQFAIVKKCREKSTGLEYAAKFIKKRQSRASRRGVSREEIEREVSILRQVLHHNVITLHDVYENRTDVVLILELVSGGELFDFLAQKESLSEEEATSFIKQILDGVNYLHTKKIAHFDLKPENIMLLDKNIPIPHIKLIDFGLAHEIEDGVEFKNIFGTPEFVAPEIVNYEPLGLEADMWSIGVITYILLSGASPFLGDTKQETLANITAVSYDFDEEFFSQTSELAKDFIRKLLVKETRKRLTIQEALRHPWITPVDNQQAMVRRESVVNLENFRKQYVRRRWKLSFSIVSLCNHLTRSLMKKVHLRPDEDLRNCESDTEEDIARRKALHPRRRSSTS

Abl(M351T)(h) (human) = Abl(M351T)(h) (human) (UniProt P00519)
Abl(M351T)(h) (human), sequence (P00519 27-1130 M351T limits assumed): as the sequence (P00519 27-1130 T315I limits assumed) above, with I289T, M325T counted along it

PDGFRα(h) (human) = PDGFRα(h) (human) (UniProt P16234)
PDGFRα(h) (human), sequence (P16234 550-1089 limits assumed): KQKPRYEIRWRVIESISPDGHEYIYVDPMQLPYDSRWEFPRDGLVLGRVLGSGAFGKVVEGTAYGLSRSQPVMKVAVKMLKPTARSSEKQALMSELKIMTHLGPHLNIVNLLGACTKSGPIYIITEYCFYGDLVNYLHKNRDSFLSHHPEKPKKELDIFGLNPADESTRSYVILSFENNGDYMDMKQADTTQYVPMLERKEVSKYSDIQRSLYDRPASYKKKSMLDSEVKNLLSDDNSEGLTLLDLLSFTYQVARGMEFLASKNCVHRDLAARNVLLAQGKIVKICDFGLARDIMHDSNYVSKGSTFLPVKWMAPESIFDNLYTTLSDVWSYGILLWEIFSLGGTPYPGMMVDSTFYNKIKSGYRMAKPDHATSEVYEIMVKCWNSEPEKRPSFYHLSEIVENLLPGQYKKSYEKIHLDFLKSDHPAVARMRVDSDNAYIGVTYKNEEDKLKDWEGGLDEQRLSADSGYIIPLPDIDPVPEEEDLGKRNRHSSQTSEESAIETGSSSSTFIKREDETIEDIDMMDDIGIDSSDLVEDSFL

IKKα(h) (human) = target: T2, IKKα(h) (human) (UniProt O15111)
T2 sequence (looked up): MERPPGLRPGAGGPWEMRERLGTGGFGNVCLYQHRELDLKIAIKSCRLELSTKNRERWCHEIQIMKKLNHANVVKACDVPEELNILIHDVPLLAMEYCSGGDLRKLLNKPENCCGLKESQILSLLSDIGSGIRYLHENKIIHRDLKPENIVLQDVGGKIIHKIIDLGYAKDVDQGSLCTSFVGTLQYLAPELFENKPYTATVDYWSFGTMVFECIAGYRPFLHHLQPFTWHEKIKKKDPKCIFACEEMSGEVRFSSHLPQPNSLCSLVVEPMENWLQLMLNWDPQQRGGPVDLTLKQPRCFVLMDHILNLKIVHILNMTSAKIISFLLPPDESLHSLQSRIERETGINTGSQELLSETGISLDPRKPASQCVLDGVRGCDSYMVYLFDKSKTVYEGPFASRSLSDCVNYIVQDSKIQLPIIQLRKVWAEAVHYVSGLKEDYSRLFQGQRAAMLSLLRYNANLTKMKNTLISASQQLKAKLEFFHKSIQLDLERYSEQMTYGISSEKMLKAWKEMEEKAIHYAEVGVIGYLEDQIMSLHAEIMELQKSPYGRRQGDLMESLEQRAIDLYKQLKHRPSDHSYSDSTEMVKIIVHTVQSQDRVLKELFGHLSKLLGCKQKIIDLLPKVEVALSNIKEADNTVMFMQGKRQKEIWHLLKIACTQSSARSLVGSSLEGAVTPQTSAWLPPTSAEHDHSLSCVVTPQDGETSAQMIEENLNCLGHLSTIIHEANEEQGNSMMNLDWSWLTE

SAPK2a(T106M)(h) (human) = SAPK2a(T106M)(h) (human) (UniProt Q16539)
SAPK2a(T106M)(h) (human), sequence (Q16539 whole entry T106M): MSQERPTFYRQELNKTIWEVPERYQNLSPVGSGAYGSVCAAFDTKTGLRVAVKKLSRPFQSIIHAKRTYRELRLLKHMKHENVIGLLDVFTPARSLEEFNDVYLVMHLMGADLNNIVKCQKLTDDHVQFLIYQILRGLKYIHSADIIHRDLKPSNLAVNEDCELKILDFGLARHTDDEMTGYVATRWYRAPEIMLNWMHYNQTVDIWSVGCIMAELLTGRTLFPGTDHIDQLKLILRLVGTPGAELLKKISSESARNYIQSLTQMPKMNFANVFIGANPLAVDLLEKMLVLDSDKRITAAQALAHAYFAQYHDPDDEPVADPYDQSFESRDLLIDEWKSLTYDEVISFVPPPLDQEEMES

Ros(h) (human) = Ros(h) (human) (UniProt P08922)
Ros(h) (human), sequence (P08922 1883-2347 limits assumed): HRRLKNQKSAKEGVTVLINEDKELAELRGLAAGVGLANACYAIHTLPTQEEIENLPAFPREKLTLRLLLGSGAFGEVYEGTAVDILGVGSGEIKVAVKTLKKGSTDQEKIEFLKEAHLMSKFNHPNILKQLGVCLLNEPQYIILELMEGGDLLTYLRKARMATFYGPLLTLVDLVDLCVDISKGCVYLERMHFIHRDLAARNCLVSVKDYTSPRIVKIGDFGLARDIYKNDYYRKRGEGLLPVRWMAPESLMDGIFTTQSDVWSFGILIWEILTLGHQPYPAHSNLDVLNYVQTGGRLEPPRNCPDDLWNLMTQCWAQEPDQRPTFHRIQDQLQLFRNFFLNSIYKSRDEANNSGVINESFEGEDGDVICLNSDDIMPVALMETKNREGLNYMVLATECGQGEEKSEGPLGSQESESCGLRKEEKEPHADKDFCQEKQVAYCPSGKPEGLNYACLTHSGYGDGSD

EGFR(L861Q)(h) (human) = EGFR(L861Q)(h) (human) (UniProt P00533)
Fes(h) (human) = Fes(h) (human) (UniProt P07332)
ALK4(h) (human) = target: T3, ALK4(h) (human) (UniProt P36896)
T3 sequence (looked up): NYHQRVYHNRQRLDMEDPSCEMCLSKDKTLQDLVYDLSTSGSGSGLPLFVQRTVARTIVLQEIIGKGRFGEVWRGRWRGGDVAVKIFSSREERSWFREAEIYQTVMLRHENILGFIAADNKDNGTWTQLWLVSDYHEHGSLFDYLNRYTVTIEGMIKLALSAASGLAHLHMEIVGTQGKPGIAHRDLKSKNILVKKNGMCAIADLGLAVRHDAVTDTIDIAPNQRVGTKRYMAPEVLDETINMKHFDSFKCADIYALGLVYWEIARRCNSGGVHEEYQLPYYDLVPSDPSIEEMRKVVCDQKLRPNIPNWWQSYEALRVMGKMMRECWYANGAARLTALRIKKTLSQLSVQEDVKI

eEF-2K(h) (human) = target: T4, eEF-2K(h) (human) (UniProt O00418)
T4 sequence (looked up): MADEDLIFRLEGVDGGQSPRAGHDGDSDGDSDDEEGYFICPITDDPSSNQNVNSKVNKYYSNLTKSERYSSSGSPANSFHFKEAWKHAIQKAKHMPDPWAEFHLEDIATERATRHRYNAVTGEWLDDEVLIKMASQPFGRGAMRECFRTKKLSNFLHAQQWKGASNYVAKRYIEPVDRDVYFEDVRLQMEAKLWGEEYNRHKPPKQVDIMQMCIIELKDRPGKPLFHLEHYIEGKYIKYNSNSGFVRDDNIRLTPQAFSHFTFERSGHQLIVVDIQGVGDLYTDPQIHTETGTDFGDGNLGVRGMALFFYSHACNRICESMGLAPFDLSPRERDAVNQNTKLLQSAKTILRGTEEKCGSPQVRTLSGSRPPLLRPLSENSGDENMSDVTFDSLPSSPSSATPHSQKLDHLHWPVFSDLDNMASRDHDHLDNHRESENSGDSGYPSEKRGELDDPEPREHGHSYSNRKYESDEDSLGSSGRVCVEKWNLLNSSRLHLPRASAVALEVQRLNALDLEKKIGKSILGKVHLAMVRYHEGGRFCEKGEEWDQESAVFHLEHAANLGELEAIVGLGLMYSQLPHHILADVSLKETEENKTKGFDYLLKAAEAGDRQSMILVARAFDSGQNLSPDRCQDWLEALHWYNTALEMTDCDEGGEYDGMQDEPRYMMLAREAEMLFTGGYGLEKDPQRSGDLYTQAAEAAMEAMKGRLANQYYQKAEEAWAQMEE

cKit(D816H)(h) (human) = cKit(D816H)(h) (human) (UniProt P10721)

MAPKAP-K2(h) (human), sequence (P49137 46-400 limits assumed): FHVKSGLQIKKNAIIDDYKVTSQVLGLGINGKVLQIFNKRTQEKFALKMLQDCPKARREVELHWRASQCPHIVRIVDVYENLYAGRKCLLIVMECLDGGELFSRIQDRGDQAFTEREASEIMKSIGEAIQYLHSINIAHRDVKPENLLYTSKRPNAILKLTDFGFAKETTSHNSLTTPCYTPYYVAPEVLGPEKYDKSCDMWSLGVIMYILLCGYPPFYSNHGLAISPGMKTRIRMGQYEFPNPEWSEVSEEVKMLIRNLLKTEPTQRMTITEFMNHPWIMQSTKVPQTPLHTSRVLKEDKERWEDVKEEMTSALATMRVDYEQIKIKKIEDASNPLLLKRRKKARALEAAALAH

% activity, 100 µM (MAPKAP-K2(h) (human)): 9%
inhibition of kinase activity at 100 µM (MAPKAP-K2(h) (human)): > 65%
% activity, 100 µM (Rsk2(h) (human)): 14%
% activity, 100 µM (PhKγ2(h) (human)): 16%
% activity, 100 µM (Rsk3(h) (human)): 23%
% activity, 100 µM (VRK2(h) (human)): 169%
% activity, 100 µM [1]: 15%
% activity, 100 µM (Abl(T315I)(h) (human)): 16%
% activity, 100 µM (DAPK2(h) (human)): 3%
% activity, 100 µM (Abl(M351T)(h) (human)): 61%
% activity, 100 µM (PDGFRα(h) (human)): 40%
% activity, 100 µM (IKKα(h) (human)): 50%
% activity, 100 µM (SAPK2a(T106M)(h) (human)): 32%
% activity, 100 µM (Ros(h) (human)): 150%
% activity, 100 µM (EGFR(L861Q)(h) (human)): 15%
% activity, 100 µM (Fes(h) (human)): 23%
% activity, 100 µM (ALK4(h) (human)): 81%
% activity, 100 µM (eEF-2K(h) (human)): 43%
% activity, 100 µM (cKit(D816H)(h) (human)): 194%
Substance: MMI-0500 (peptide)

From patent US20140072613A1, “Compositions and Methods for Treating Cutaneous Scarring” (priority 2012, published 2014)
